In article PMC8683085, “Serine ADP-ribosylation marks nucleosomes for ALC1-dependent chromatin remodeling” (eLife, 2021):

Experiments:
PARP1 SerADPr_(long) = molecular target: T1, PARP1 SerADPr_(long) (UniProt P09874 1-1014, long serine-linked ADP-ribose chains; a small population of aspartate- and/or glutamate-linked ADPr; sites not told); test: co-IP; purified components: 100 nM FLAG-ALC1, 50 nM unmodified or H3S10ADPr3 nucleosomes, 100 nM PARP1 (unmodified, SerADPr long or short); 100 mM KCl, 25 mM HEPES pH 7.9, 2 mM MgCl2, 5% glycerol, 0.1% NP-40, 1 mM DTT; anti-FLAG M2 magnetic resin; western blot; conditions: both partners purified
T1 construct: PARP1, full-length construct, as m15; also called serine-auto-ADP-ribosylated PARP1 with long chains; automodified PARP1

PARP1 SerADPr_(short) = molecular target: T2, PARP1 SerADPr_(short) (UniProt P09874 1-1014, relatively short serine-linked ADP-ribose chains; sites not told); test: as above; conditions: both partners purified
T2 construct: PARP1, full-length construct, as m15; also called serine-auto-ADP-ribosylated PARP1 with relatively short chains; automodified PARP1

[1] = molecular target: H2BS6/H3S10ADPr4 nucleosome (UniProt P68431 22-136; P62805 1-103, H3A21C, tetra-ADP-ribose on S6 | tetra-ADP-ribose on S10); test: cell-based or functional assay

T2 sequence (P09874 whole entry): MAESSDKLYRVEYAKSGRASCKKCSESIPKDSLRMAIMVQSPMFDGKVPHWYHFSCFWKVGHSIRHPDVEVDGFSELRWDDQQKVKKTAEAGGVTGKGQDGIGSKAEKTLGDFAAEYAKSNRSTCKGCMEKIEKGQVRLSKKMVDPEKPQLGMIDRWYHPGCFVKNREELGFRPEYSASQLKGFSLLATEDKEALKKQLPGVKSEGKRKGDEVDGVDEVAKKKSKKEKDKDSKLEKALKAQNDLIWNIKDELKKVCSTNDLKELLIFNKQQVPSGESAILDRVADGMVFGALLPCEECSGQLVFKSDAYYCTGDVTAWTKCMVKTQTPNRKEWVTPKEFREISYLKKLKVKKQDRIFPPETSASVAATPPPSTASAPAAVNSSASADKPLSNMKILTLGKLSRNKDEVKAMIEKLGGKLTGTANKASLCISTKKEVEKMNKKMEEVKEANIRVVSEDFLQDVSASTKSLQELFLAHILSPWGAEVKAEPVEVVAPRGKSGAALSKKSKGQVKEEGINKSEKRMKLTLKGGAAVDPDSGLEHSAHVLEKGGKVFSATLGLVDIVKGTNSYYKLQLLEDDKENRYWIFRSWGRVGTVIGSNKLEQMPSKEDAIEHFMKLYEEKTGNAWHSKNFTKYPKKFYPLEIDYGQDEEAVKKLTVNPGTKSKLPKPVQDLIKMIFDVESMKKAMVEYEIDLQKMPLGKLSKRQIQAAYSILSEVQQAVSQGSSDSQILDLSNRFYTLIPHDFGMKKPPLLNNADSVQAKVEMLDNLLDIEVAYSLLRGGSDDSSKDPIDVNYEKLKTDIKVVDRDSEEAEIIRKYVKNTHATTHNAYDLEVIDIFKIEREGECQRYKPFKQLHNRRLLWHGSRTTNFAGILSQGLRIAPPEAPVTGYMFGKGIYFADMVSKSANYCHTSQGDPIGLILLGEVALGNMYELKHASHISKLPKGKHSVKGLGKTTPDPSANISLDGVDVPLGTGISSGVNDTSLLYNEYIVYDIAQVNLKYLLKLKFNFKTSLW
T1 sequence (P09874 whole entry): as above

B1: ALC1 (full-length, 6xHis-1xFLAG-ALC1) (enzyme, UniProt Q86WJ1 1-897, looked up)
chain: MERAGATSRGGQAPGFLLRLHTEGRAEAARVQEQDLRQWGLTGIHLRSYQLEGVNWLAQRFHCQNGCILGDEMGLGKTCQTIALFIYLAGRLNDEGPFLILCPLSVLSNWKEEMQRFAPGLSCVTYAGDKEERACLQQDLKQESRFHVLLTTYEICLKDASFLKSFPWSVLVVDEAHRLKNQSSLLHKTLSEFSVVFSLLLTGTPIQNSLQELYSLLSFVEPDLFSKEEVGDFIQRYQDIEKESESASELHKLLQPFLLRRVKAEVATELPKKTEVVIYHGMSALQKKYYKAILMKDLDAFENETAKKVKLQNILSQLRKCVDHPYLFDGVEPEPFEVGDHLTEASGKLHLLDKLLAFLYSGGHRVLLFSQMTQMLDILQDYMDYRGYSYERVDGSVRGEERHLAIKNFGQQPIFVFLLSTRAGGVGMNLTAADTVIFVDSDFNPQNDLQAAARAHRIGQNKSVKVIRLIGRDTVEEIVYRKAASKLQLTNMIIEGGHFTLGAQKPAADADLQLSEILKFGLDKLLASEGSTMDEIDLESILGETKDGQWVSDALPAAEGGSRDQEEGKNHMYLFEGKDYSKEPSKEDRKSFEQLVNLQKTLLEKASQEGRSLRNKGSVLIPGLVEGSTKRKRVLSPEELEDRQKKRQEAAAKRRRLIEEKKRQKEEAEHKKKMAWWESNNYQSFCLPSEESEPEDLENGEESSAELDYQDPDATSLKYVSGDVTHPQAGAEDALIVHCVDDSGHWGRGGLFTALEKRSAEPRKIYELAGKMKDLSLGGVLLFPVDDKESRNKGQDLLALIVAQHRDRSNVLSGIKMAALEEGLKKIFLAAKKKKASVHLPRIGHATKGFNWYGTERLIRKHLAARGIPTYIYYFPRSKSAVLHSQSSSSSSRQLVP
notes: ALC1 (CHD1L), full-length gene synthesized by Twist Biosciences; also called FLAG-tagged ALC1; recombinant, full-length ALC1; source: Sf9 (baculovirus), purified (anti-FLAG M2 magnetic resin, FLAG peptide elution); not shown: FLAG, N-terminal, kept
PARP1 SerADPr_(long)
  binding result: binds
PARP1 SerADPr_(short)
  binding result: binds
[1]
  ALC1 remodeling rate constant relative to the unmodified nucleosome (REA assay): ~370 fold
